From US20090098568A1 come the findings set out here.

This test concerns the target cyclophilin A, N-terminally His- and FLAG-tagged fusion protein (UniProt P62937). Description: SPR (Biacore S51); 1 uM cyclosporin A injected for 1.5 minutes over Cyph immobilized (approx. 3,400 RU) on an NTA sensor chip. In general terms: SPR reads the build-up and loss of mass on a sensor chip optically.
Chain of UniProt P62937 (P62937 other isoform, or with tags, fused parts or gaps limits assumed): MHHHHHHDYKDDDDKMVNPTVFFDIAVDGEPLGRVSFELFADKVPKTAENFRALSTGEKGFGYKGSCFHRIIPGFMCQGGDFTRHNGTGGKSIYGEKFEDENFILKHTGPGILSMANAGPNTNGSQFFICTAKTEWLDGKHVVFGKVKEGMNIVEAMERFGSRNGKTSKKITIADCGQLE

Consider Cyclosporin A (peptide), for which the response (RU) was 43 RU.
